Measured values: publication PMC8009421, “Characterization of a broadly specific cadaverine N-hydroxylase involved in desferrioxamine B biosynthesis in Streptomyces sviceus” (PLoS ONE, 2021)
Each block holds one compound with its values, some of them ahead of it.

How the values were obtained:
[1] = test system: NC(=O)C1=CN([C@@H]2O[C@H](COP(=O)(O)OP(=O)(O)OC[C@H]3O[C@@H](n4cnc5c(N)ncnc54)[C@H](O)[C@@H]3O)[C@@H](O)[C@H]2O)C=CC1; assay: purified protein; format: biochemical, Streptomyces sviceus; details: 10 mM cadaverine, 50 μM FAD, 25°C, Haldane fit
[2] = target: T1, SsDesB (without N-terminal hexahistidine tag) (Streptomyces sviceus, UniProt B5HNG5); assay: Csaky iodine oxidation product formation assay; format: biochemical; details: substrate inhibition constant (Haldane), 50 μM FAD, pH 8.0, 25°C
T1 construct: gene SSEG_08523; T2-V425, N-terminal His6 cut off with TEV protease (ENLYFQ/T); codon-optimized gene, E. coli Rosetta2(DE3); homotetramer
Text: (§1) Csaky iodine oxidation product formation assay on SsDesB (without N-terminal hexahistidine tag)

[3] = target: T2, SsDesB with N-terminal hexahistidine tag (Streptomyces sviceus, UniProt B5HNG5); assay: NADH oxidation at […] nm; format: biochemical; details: substrate inhibition constant (Haldane); 0.7 mM NADH, 50 μM FAD, 25°C
T2 construct: gene SSEG_08523

[4] = target: T1, SsDesB (without N-terminal hexahistidine tag); assay: X-ray crystal structure, […] Å; details: holoenzyme; FAD-binding site; also in 6XBB
[5] = target: T1, SsDesB (without N-terminal hexahistidine tag); assay: X-ray crystal structure, […] Å; details: ternary complex with FAD; NADPH-binding site
[6] = test system: NC(=O)C1=CN([C@@H]2O[C@H](COP(=O)(O)OP(=O)(O)OC[C@H]3O[C@@H](n4cnc5c(N)ncnc54)[C@H](O)[C@@H]3O)[C@@H](O)[C@H]2O)C=CC1; assay: Csaky iodine oxidation product formation assay; format: biochemical, Streptomyces sviceus; details: 10 mM cadaverine, 50 μM FAD, pH 8.0, 25°C, Haldane fit
Text: as §1

Compound: SsDesB with N-terminal hexahistidine tag (Streptomyces sviceus ATCC 29083)
- Km [1]: 120 ± 36 µM
- kcat [1]: 0.38 ± 0.09 s⁻¹
- kcat/Km [1]: 3300 ± 1300 M⁻¹ s⁻¹

- KI ([2]; 10 mM cadaverine): 1100 ± 600 µM
Compound: NC(=O)C1=CN([C@@H]2O[C@H](COP(=O)(O)OP(=O)(O)OC[C@H]3O[C@@H](n4cnc5c(N)ncnc54)[C@H](OP(=O)(O)O)[C@@H]3O)[C@@H](O)[C@H]2O)C=CC1 [NADPH]

- KI ([2]; 0.7 mM NADPH (Fig 3 legend says NADH)): 27000 ± 22000 µM
- KI [3]: 2200 ± 1800 µM
Compound: NCCCCCN [cadaverine]

- KI ([2]; 10 mM cadaverine): 1000 ± 400 µM
Compound: NC(=O)C1=CN([C@@H]2O[C@H](COP(=O)(O)OP(=O)(O)OC[C@H]3O[C@@H](n4cnc5c(N)ncnc54)[C@H](O)[C@@H]3O)[C@@H](O)[C@H]2O)C=CC1 [NADH]

Compound: Cc1cc2nc3c(=O)[nH]c(=O)nc-3n(C[C@H](O)[C@H](O)[C@H](O)COP(=O)(O)OP(=O)(O)OC[C@H]3O[C@@H](n4cnc5c(N)ncnc54)[C@H](O)[C@@H]3O)c2cc1C [FAD]
- X-ray crystal structure, 2.86 Å [4]: FAD molecule is bound in an elongated conformation with the fully planar isoalloxazine ring

Compound: NC(=O)c1ccc[n+]([C@@H]2O[C@H](COP(=O)(O)OP(=O)(O)OC[C@H]3O[C@@H](n4cnc5c(N)ncnc54)[C@H](OP(=O)(O)O)[C@@H]3O)[C@@H](O)[C@H]2O)c1 [NADP^+]
- X-ray crystal structure, 2.37 Å [5]: the NADP^+ cofactor is held in the active site pocket in an elongated manner

Compound: SsDesB (without N-terminal hexahistidine tag) (Streptomyces sviceus ATCC 29083)
- Km [6]: 130 ± 49 µM
- kcat [6]: 0.094 ± 0.018 s⁻¹
- kcat/Km [6]: 710 ± 260 M⁻¹ s⁻¹
